According to US6323311A, “Synthesis of insulin derivatives” (University of Utah Research Foundation, priority 1999, dated 2001):
Where two headings read alike, the source gives them in different places.

How the values were obtained:
[1] = tested on: male Sprague-Dawley rats; test: Biological activity of mCE-PEG insulin conjugates, blood glucose depression in rat after i.v. injection; format: in vivo; conditions: from blood glucose AUC vs unmodified human insulin, fresh solution in PBS 20 μg/ml
Procedure: The biological activity of mCE-PEG-substituted insulin conjugates was tested in a rat model (male Sprague-Dawley rats, 250±50 g) by measuring blood glucose depression levels. The animals were fasted overnight (16 hours) prior to the experiment. In the morning, the rats were anesthetized with intraperitoneally administered sodium pentobarbital. Each animal received an i.v. injection (tail vein) of the particular insulin derivative (20 μg/ml NS/kg). Blood samples were taken from the jugular vein 15 and 5 minutes before injection and 15, 30, 60, 90, 120, 180, and 240 minutes after injection. Blood glucose levels were measured with an Accucheck III blood glucose monitor (Boehringer Mannheim). Bioactivities of insulin derivatives were calculated from AUC (area under curve) values, and the AUC value for the same dose of unmodified human insulin.

[2] = Accelerated shaking test, physical stability of mCE-PEG insulin conjugates (fibril formation/precipitation); format: physicochemical; conditions: 87 μM, 37° C., shaker 100 strokes/min, n=14 vials
Procedure: The long term physical stability of PEG-insulin derivatives was examined by their tendency to form fibrils in the accelerated shaking test at a concentration of 87 μM. Aggregation was evaluated in 5 ml borosilicate glass vials (1.2 ml filling volume) at 37° C., in a shaker at 100 strokes/min. Individual vials (n=14) were withdrawn at determined times, and the remaining soluble fraction of particular PEG-insulin derivatives was determined after filtration (PVDF membrane, 0.22 μm) using UV spectroscopy and/or HPLC. In parallel, vials were checked visually on a daily basis for the presence of turbidity and/or a precipitate, which was an independent indication that physical aggregation had occurred.

[3] = tested on: Inbred A/J and C57BL/10ScSn mice; conditions: intraperitoneal, 3 x 5 μg
Procedure: Inbred A/J and C57BL/10ScSn mice, 12 weeks old, were used throughout the experiments. Mice (10 per experimental group) were immunized intraperitoneally with 5 μg samples on day 0. Samples were injected either in soluble form (dissolved in PBS, pH 7.4) or as a precipitate (alum precipitate). After 3 weeks, the mice were given a secondary injection, and after another 3 weeks, a third injection. Eight days after the last immunization, the mice were exsanguinated and the serum was separated and stored at -80° C. The specific antibody level in the serum was determined by an ELISA indirect method as described in 44 J. Clin. Lab. Immunol. 191-241 (1994).

[4] = strain A/J, Soluble formulation
[5] = strain B10, Soluble formulation

Substance	Biological Activity ± S.D. [1]	Days to Precipitation ± S.D. [2]	Antibody Titres ([3]; strain A/J, Alum ppt.)	Antibody Titres [3, 4]	Antibody Titres ([3]; strain B10, Alum ppt.)	Antibody Titres [3, 5]
GlyA1-mCE-PEG insulin [A1-PEG600 Insulin]	22.2 ± 4.2 IU/mg					
GlyA1-mCE-PEG insulin [A1-PEG2000 Insulin]	15.7 ± 3.1 IU/mg					
GlyA1-LysB29-di-mCE-PEG insulin [A1-B29-(PEG600)2 Insulin]	19.1 ± 3.6 IU/mg	8.4 ± 1.3 days				
GlyA1-PheB1-di-mCE-PEG insulin [A1-B1-(PEG600)2 Insulin]	16.2 ± 3.2 IU/mg	26.4 ± 4.6 days				
GlyA1-PheB1-di-mCE-PEG insulin [A1-B1-(PEG2000)2 Insulin]		19.3 ± 2.3 days				
PheB1-mCE-PEG insulin [B1-PEG600 Insulin]	22.8 ± 4.2 IU/mg	22.0 ± 4.6 days	6.1 log2 of serum dilution	0 log2 of serum dilution	9.5 log2 of serum dilution	0 log2 of serum dilution
PheB1-mCE-PEG insulin [B1-PEG2000 Insulin]	15.4 ± 2.6 IU/mg		0 log2 of serum dilution	0 log2 of serum dilution	0 log2 of serum dilution	0 log2 of serum dilution
GlyA1-LysB29-di-mCE-PEG insulin [A1-B29-(PEG2000)2 Insulin]	10.6 ± 2.1 IU/mg					
GlyA1-PheB1-LysB29-tri-mCE-PEG insulin [A1-B1-B29-(PEG600)3 Insulin]	5.3 ± 1.1 IU/mg	35.9 ± 5.3 days	0 log2 of serum dilution	0 log2 of serum dilution	0 log2 of serum dilution	0 log2 of serum dilution
